Assay results from the supplement of paper PMC9170038.

System: K4 kissing-loop RNA reporter
Test: apparent KD of K4 kissing-loop reporter; higher = weaker reporter binding
Settings: Eterna round: R107
Description: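 RNA-MaP round R107: designed RNA switches with theophylline, tryptophan, arginine or FMN aptamers are transcribed on-chip within common flanks. They are titrated with a labelled K4 kissing-loop RNA reporter in RNA-MaP buffer (100 mM Tris pH 7.5, 80 mM KCl, 4 mM MgCl2), without ligand or with the indicated ligand. Median apparent KD per design.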

[1] = input ligand: theophylline 20 uM
[2] = input ligand: tryptophan 2.4 mM
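Further: bound reporter read as fluorescence of individual clusters on recovered sequencing chips by microscopy, with normalized cluster intensities fitted with a binding model.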

Sequence	apparent KD of K4 kissing-loop reporter (input ligand: FMN 200 uM) [nM]	apparent KD of K4 kissing-loop reporter (input ligand: arginine 13.2 mM) [nM]	apparent KD of K4 kissing-loop reporter (input ligand: none) [nM]	apparent KD of K4 kissing-loop reporter [1] [nM]	apparent KD of K4 kissing-loop reporter [2] [nM]
GUCCACACUGCAGGAUAUGGAGAAGUAGCGAGGGAGUUUGGAAGCACACCUCUGGCAGUGAUGUUGCCAGAAGGGCGGUGCGGCG [Inlaindi]	109	80.2	80.6	84.1	93.9
CCAUCGCUAUUCGAUACCAGUCAUUUUUUAUUUUAUUUUUUUUUUGGAGUGAUGUUCCAAGACCCUUGGCAGCGGAUAGUGAUGG [whbob_SS_Theo_B_th79]	117	150	117	158	109
UUCAGGUGUUCGGCCGCCACUCCAGUGAUGUUGGAGUGGCUUCACAAGGACCAGGACAAUGUAAGGAGGACCGGGAAUAUCUCAG [Vequleat]	130	105	136	128	118
UGAUAAUGCAGUGAUGUUGCUAGAAACGAUACCAGUUAAGAAAAGAACCCUUGGCAGCGUAAAGUGCGCUCUAAUGAGUGUGCUU [#10 K4 Theophylline A Same State]	164	195	194	212	132
UACUAUAGUGAUGUUAUAGAUAAACCAGAUACCAGUGUAACAUAACACCCUUGGCAGCUGAUGAGGGAACAUAUGAAAACAUAUG [AstroSTH-A#6newdesignED4.78]	254	209	256	215	222
UUUAUAUAGUCGGCCGCCACUGAUUUUUAUAUAUGUUUAUGUUUAUACGAGUGAUGUUCGAUAUACAGGACCGGGACUUUUGUUA [JR_SSTryptoB_Sub017]	268	291	294	306	207
AUGGGCACGUCGGCCGCCACUACACGGUCCCGCGAGGGCCAGUGAUGUUGGUCGACGUGCCGUUGUAGGACCGGGACGUGGCUGU [Teatondi]	125	54.5	79	103	83.3
AAGGUUGUGCAUGGGAGUGAUGUUCCCACGCAGGAUAUCGCUCUCGCGAGAAGGGCGAGCACAACCGCUCAAGAAACUUGAGCAA [Omei KL FMN A SS C v3]	129	320	480	402	388
UGACUGGACUGAAGGAGCGCUGAACUCCUAGUGAUGUUAGGAUAACGAGACAAAGUCUCGCGGCAGGUAGGUCGCAGUCUAGUCU	122	93.3	109	99.3	106
UCGGAUGUUCUGUCGAGAUGAGCAAUAGCACGAGGACCGGUACGGCCGCCACUCGACCCAGUGAUGUUGGGUGGCUAAGUUCAGC [Geragean]	265	239	208	285	147
AAUUAGCCGUAAGAAUAGUGAUGUUAUUCACGAGGACCGGUACGGCCGCCACUCGAUAUUGGAAUAUUGAAUUUUUUAUUCUAAA [JR_SSTryptoA_Sub009]	524	474	552	577	291
UAGGUGCCGAACCAGUGAUGUUGGAGUCAUCGAGGACCGGUACGGCCGCCACUCGGCAGCGCCGGCGCGAUUAAUUGCGGAGACA [theeternabot_sameState_KL_Trp_A_7]	689	390	596	470	698
UGACAUUGCUCAGAUACCAGACUUGAGGAACACCCAAGUGCCAAAACGUACUAAAUAAAAGUCCCUUGGCAGCUGAGCAAUGUCU [TheoBX 13]	91.5	30.6	46.2	60.9	59.4
UGAUACCAGACGGCCGCCACUCCUGCAAGUCAAAGACUUGCUAAAGGAAUCGUCCAGUGAUGUUGGAGGACCGGGUCUGGUAUCU [TrypBX 18 #SwitchBubble #Palindromic #StaticStem]	1040	745	1160	890	602
AAACAUUGGUCUGAUACCAGCUUGAUCGGAAAACGAUCUGCUGGAGUGAUGUUCCAAUAAAGCCCUUGGCAGCAGACCGAUGAAA [MAT - Same State Theophlline B - Mod of Eli - D13]	823	444	818	684	722
UGUCAUUGGUCGGCCGCCACUUCAAAGAGAGUGAUGUUCUUAAAGACGGAUCGAAAGAUCUGUCGAAGGACCGGGACCGAUGACU [TrypBS 17 #SwitchBubble #StaticStem]	1770	973	1110	1200	285

Sequence	apparent KD of K4 kissing-loop reporter (input ligand: FMN 200 uM) [nM]	apparent KD of K4 kissing-loop reporter (input ligand: arginine 13.2 mM) [nM]	apparent KD of K4 kissing-loop reporter (input ligand: none) [nM]	apparent KD of K4 kissing-loop reporter [1] [nM]	apparent KD of K4 kissing-loop reporter [2] [nM]
UGACUGGACUGAAGGAGCGUUGAAGGAGCGUAAGCAGUGAUGUUGCUUACAGGUAGGUCGCAGCAGGUAGGUCGCAGUCUAGUCU [ArgBS 28 #DoubleAptamer #SwitchBubble]	134	102	122	115	122
GGACGCCGGUCGGCCGCCACUCACAGCAGUGAUGUUGCUGAGCUUGUAGCGGAGUGAUGUUCCGAGAGGACCGGGACUGCAGUUU [Same State Tryptophan B GF 10]	522	506	739	550	532
AAGAGCUAGGCGGCCGCCACUAGAUGUGAACACAUACAAGCCAGUGAUGUUGGUAUGAUGGACGGUAGGACCGGGCCUAGCUGAA [Exclusion - Tryptophan B (Freestyle 12)]	290	464	394	381	294
GUAGCUUGGCUAGGAUAUUAGCGUAGGAGUGAUGUUCCGACUAGCGAAAGCUAGUCUCACGCUAGUUAAGAAGGAGCCAAGCUAC	263	172	175	181	174
UGAUACCAGACGGCCGCCACUUCCGUAAGUCAAAGACUUACCAAGAGAAUCGUCCAGUGAUGUUGGAGGACCGGGUCUGGUAUCU [FiskerMod 7 - Jieux - Exclusion - Tryptophan B]	931	654	979	849	872
UGUCAUUGGUCGGCCGCCACUUCAUAAAGAGUGAUGUUCUGAAAGACGGAUCGAAAGAUCUGUCGGAGGACCGGGACCGAUGACU [FiskerMod 2 - Jieux - Same State - Tryptophan B]	1450	587	1440	686	397
CGUGAAGCCCAGAGGUGAUGUAUAGUAUCGCGAGGACCGGUACGGCCGCCACUCGUGAAGAGAAAGGAGUGAUGUUCCGUAAUGG	480	380	595	406	165
CUUAUUAUGUCGGCCGCCACUCAAUGAUAAUCCACUAAAUUGCGAUUCAGUGAUGUUGAAGUGCUGAGGACCGGGACUAUUAACA [theeternabot_sameState_KL_Trp_B_22]	541	206	345	214	316
AAAGGCAAAGCCCGAGUGAUGUUCGACGAUACCAGCCUCGAUAGAGGCCCUUGGCAGCGUAAAUGAUCACAAAGCCAAGGAAUAA [#OpenEnded 2 #StaticStem]	310	244	268	248	261
UACUCUCCUCCUGAUACCAGAUAAAUAUUAAUACAUUAGUGAUGUUAAUGCCCAAACCCGAUCCCUUGGCAGCAGAAUAUGCAGG [theeternabot_sameState_KL_Theo_B_25]	152	240	202	258	126
UUUAUUAAGACGGCCGCCACUGAAUCAUAGUGAUGUUAUGAUAAAAUUUUAGAUAAUAAUAACAGCAGGACCGGGUCAAUUAUUA [JR_SSTryptoB_Sub015]	200	173	208	191	182
GGUAGCAUGGCGGCCGCCACUGCGAAUGACGGCCACGUGAAAGUUGCCGCAGAGUGAUGUUCUGGCAGGACCGGGCCAUGCUACC	432	372	515	477	354
AAUAAAAUCACGGCCGCCACUGAAUAAUUGGUAAGUAGUGAUGUUACUUUACAUAUCUUAUUUAACAGGACCGGGUGAAUAUUUA [JR_ExcTryptoB_Sub008]	134	92.4	116	103	131
AAGUGUUCUAGUGAUACCAGACAAUUUUAUUUUUUCUUUUUUGCUAAGUGAUGUUUAGCAGUCCCUUGGCAGCACUAUUUCACUA [JR_SSTheophyB_Sub018]	129	109	106	147	128
UGUACCGAGUCAGGAUAUGGCGUCGAAAGACGAAAUGGAGUGAUGUUCCUUAUCUGCGAAAGCAGUCCAGAAGGGACUUGGUACU [FmnBS 27 #SwitchBubble #StaticStem #DoubleMagnetSystem]	134	120	137	123	137
